The values below come from a protein production outcome set (Wang et al. 2014).

The series in a line: label from the status in PepcDB records.
For “MFLSAASSIIYLLLFFIASLIILVFSSDAFFDNAVPMFRSRGIGDMYAGTIFVGFASVLDEIALSASSLIFRHPEIGIGAVEGSNLITMAFFTVIVAVSYLEVAGEFTLDMIVILVLTILSMVFAEIFVHIPWFYSIALFVPFVVYLVIKAGGSKEAGYGPQEYSNIVLIVSFFLIFLSSDTLVRSTIGIASYTGINLVDLSAYGIGMVSSFPEIIMILVSLRGGRKVVSMGIFTGSTVYKMSLIPGIIIVSEPTGFSDIFYMLLAILVMSLLVLFLGIMSRKSQGRSNIH”, the protein production entry is given as “failed”.

Regarding “MFLSRPLVRIASAADRFLHGETEVKIPVKHDDEIGRLARAFNYLSEEIVRLTRKEEWLREVLSSIREAIIVTNASGEIVLANPAASRLFMIEAARKRSIPVTNIEDAAMRELFERVQKRQSGIYNEELTAMTSKGKRTLKVTAVPVMRRGALFDGTVLVINDVTRLRNLERTRRDFVSSVSHELRTPLASIKGYTETLLEGAMNDPENATAFLNIIHQEAEQLTALVNDVLDLSRIESGKIAYSFEPVDVKPQLEKTAALFEPAAARKGVRIELNAPEGLPAVLADRSYFDIVVRNLIDNAIKYVDAESGRVRVSAYATGDSVSIEVADNGIGIPQADLDRIFERFYRVDKARSRELGGTGLGLSIVKHIVLAHKGKVEVRSRINRGTTFTVTLPVAGA”, the protein production result is listed as “failed”.

Take “MFLTAVNPQPLSTPSWQIETKYSTKVLTGNWMEERRKFTRDTDKTPQSIYRKEYIPFPDHRPDQISRWYGKRKVEGLPYKHLITHHQEPPHRYLISTYDDHYNRHGYNPGLPPLRTWNGQKLLWLPEKSDFPLLAPPTNYGLYEQLKQRQLTPKAGLKQSTYTSSYPRPPLCAMSWREHAVPVPPHRLHPLPHF”: the protein production result was “failed”.

For “MFMNRLFGKPKQETSTLQTLDKLNETLEMLEKKENVLLKKATGEVEKAKEFSRAKNKRAAIQCLKRKRLYEQQVEQLGNFQLRIHDQMIMLEGAKATTETVDALRTGASAMKAMQKATNIDDVDKTMDEINEQTENMKQIQEALSAPFGANDFDEDELEAELDELEGAELEEQLLQPVPIHVPQGNKPARAPAQKQPTAEEDELAALQAEMAL”, the protein production result was “failed”.

As to “MFNFAVSRESLLSGFQWFFFIFCNTVVVPPTLLSAFQLPQSSLLTLTQYAFLATALACFAQAFCGHRRAIMEGPGGLWWGTILTITLGEASRGTPINDIATSLAVGIALSGVLTMLIGFSGLGHRLARLFTPSVMVLFMLMLGAQLTTIFFKGMLGLPFGIADPNFKIQLPPFALSVAVMCLVLAMIIFLPQRFARYGLLVGTITGWLLWYFCFPSSHSLSGELHWQWFPLGSGGALSPGIILTAVITGLVNISNTYGAIRGTDVFYPQQGAGNTRYRRSFVATGFMTLITVPLAVIPFSPFVSSIGLLTQTGDYTRRSFIYGSVICLLVALVPALTRLFCSIPLPVSSAVMLVSYLPLLFSALVFSQQITFTARNIYRLALPLFVGIFLMALPPVYLQDLPLTLRPLLSNGLLVGILLAVLMDNLIPWERIE”, the protein production result is “failed”.

For the sequence “MFNGMVRTIRDSVVGTYPSCHVSSRLEERRAKQRAMRQERRRKPDKPDDFVTYEDSGSDEETPQQQEEVLNTSYNLCDYLRSRESGLRDRRSVNVEYTSRYVLTHDMLRETQISLGYINKVFCSKWLSSRQVVFGTKCNKLLVYDVNMRRVDAIPTLSNSRANHPEVQGGLHAIELSPSRSFLATGARNSSDIAVYRLPTLDPVCVGEGGHRDLIMGMCWLDDQFLVSGSKDSRMALWRINEDHMEFPDGGEEACPTFATIHPLSVKEVRTAQRIRSLCFNKEFKEIAALSLNGYIHIFNAETFKQTLSRKLPNCQDNVSIAYHSDGLYAVGCRSYTILLDARTLQTIKKITSRYSGCGIRATSFEGNLLTVGTGLGMLLFYDIRAGKYLESSVNASRTVALKCSKGIVYPEDEMDGFQQVKYVPAIYTHCYDSTRMRLFAAGGPLPATLVGNYAGVWQ”, the protein production entry is recorded as “failed”.

For the sequence “MFNNDRLLVQILLLALFGACLWVMAPFWSALVWGAVLAFASWPLMRLLTRWFKGRESLAALVMCLCWMLLVAAPLVWLGFNLADHVRDATALIKDIQVDGLPDPPQWLAGIPLVGERLVGLWTTIDQQGAAFMTTVKPYLGEVGNWLLARSAQIGGGILELTLSIVFAFFFYRDGPRLAAFVLSLLERLIGDRAQYYLDLVAGTVQRVVNGVIGTAAAQALLALIGFLIAGIPGALVLGILTFLFSLIPMGPPLVWLPATAWLVWQGEYGMAIFLGIWGMFVISGVDNVLKPYLISRGGNLPLVIVLLGVFGGLLAFGFIGLFIGPTLLAVAYSLLTDWVGSERARNPR”, the protein production result is given as “failed”.

Consider “MFPFGPHSPGGDETAGAEEPPPLGGPAAASRPPSPAPRPASPQRGADAASPPPVAGSPRLPGGPAVSPAERAGEFAAPGALELSAATASASQAKLSPSSSPRRRSRPDWRAGGRSRQGLGAGLGGPGARLFGWLRERSLGRGLFVDPARDNFRTMTNLYGSIHPADSVYLSTRTHGAVFNLEYSPDGSVLTVACEQTEVLLFDPISSKHIKTLSEAHEDCVNNIRFLDNRLFATCSDDTTIALWDLRKLNTKVCTLHGHTSWVKNIEYDTNTRLLVTSGFDGNVIIWDTNRCTEDGCPHKKFFHTRFLMRMRLTPDCSKMLISTSSGYLLILHELDLTKSLEVGSYPILRARRTTSSSDLTTTSSSSGSRVSGSPCHHNDSNSTEKHMSRASQREGVSPRNSLEVLTPEVPGERDRGNCITSLQLHPKGWATLLRCSSNTDDQEWTCVYEFQEGAPVRPVSPRCSLRLTHYIEEANVGRGYIKELCFSPDGRMISSPHGYGIRLLGFDKQCSELVDCLPKEASPLRVIRSLYSHNDVVLTTKFSPTHCQIASGCLSGRVSLYQPKF”, for which the protein production result was “failed”.

As to “MFPLTEENKHVAQLLLNTGTCPRCIFRFCGVDFHAPYKLPYKELLNELQKFLETEKDELILEVMNPPPKKIRLQELEDSIDNLSQNGEGRISVSHVGSTASKNSNLNVCNVCLGILQEFCEKDFIKKVCQKVEASGFEFTSLVFSVSFPPQLSVREHAAWLLVKQEMGKQSLSLGRDDIVQLKEAYKWITHPLFSEELGVPIDGKSLFEVSVVFAHPETVEDCHFLAAICPDCFKPAKNKQSVFTRMAVMKALNKIKEEDFLKQFPCPPNSPKAVCAVLEIECAHGAVFVAGRYNKYSRNLPQTPWIIDGERKLESSVEELISDHLLAVFKAESFNFSSSGREDVDVRTLGNGRPFAIELVNPHRVHFTSQEIKELQQKINNSSNKIQVRDLQLVTREAIGHMKEGEEEKTKTYSALIWTNKAIQKKDIEFLNDIKDLKIDQKTPLRVLHRRPLAVRARVIHFMETQYVDEHHFRLHLKTQAGTYIKEFVHGDFGRTKPNIGSLMNVTADILELDVESVDVDWPPALDD”, the protein production entry is “failed”.

As for “MFQDPTDEYIRTITAHCDLAGKEVLEVGCGTGRITRDLARHARRVVAVDPDETALAKARSAVPAPNVQFLPMPDGVLHFPPASFDVVIHTLSLHHVPLDRMNESLRAAAGLVRDGGVIVVVEPGDGGSFTEAKERFGAGSGDERPGREAAIRAMHGLDGWTVGETVLFRVRFLFADEDDFIATKLPGFGEKPEAFQQEVREFLARHRTAEGVVLDAGRRLNVLRRG”, the protein production result is “failed”.

As to “MFQSKSRTSLTNKKTLLFGLISVFLCGMGFSIIMPVVPFLVTPYVTNASDQALMVTLLTSVYAFCVFFAAPGLGALSDRFGRRPVLLICFIGSAIGYFIFGLGGALWVLFLGRIIEGITGGSISTLFAFFADITPQEERTKYFGWVSAAAGAGAALGPAFGGLLAHFGYAMPFFFGATITFINFLFGYFYMPESLDDANRLKRIPLMRLNPFSQLLNILTIKNLGRLLIAAFFIWVPNGSLQAVMSQFAIDSFSWKPALIGMMFSIMGIQDILSQAFVMPKLLIRLTDKQIAVLGMIAEIIGYSLIATSSIFTLAPLLVIGMFVFGFGDSIFGPSFNGMVSKAASASEQGRIQGGSQAIQSLARIIGPIIGGQIYITLGHAAPAIMGVLLITVAIFILYKKTSLAK”, the protein production result was “failed”.

As to “MFRPPSIKDAKKIWELIGRCKPLDINSPYCYALIGRDFFDSSIVYEEEGRIKGVVIGYLRPRAPERLFVWQVAIEAKSRGKGIAKRAIEAILKNLERKGHCIQAIEATYTPSNLASKALFHALGREWKVVWIEENFLEGALLSAQEAHEEEWLITLPFSSEALGVQGANHANL”, the protein production result is “failed”.

For “MFSGCVERSTRVLQDQEGDTVTSSPAGNKLPNINGLRDSNPRHSLGYRVQHRARTVVASVIVAMLVFAGTAAAATWLDVDNVIQHQKVDVIGQGSVSAEPTIIDPNSGKPIEILLLGQDSRDGEGNQAIGGDMTGNHQADTAMVLQISADRSAINLVSIPRDSLVDVPQCETSKGTIPAQYGVMFNSIFAGAYQTGGDLASAASCTLNAVNSLTGLNIQNFIVVDFAGLVKMIDAIGGVDICVPQDIDDPYSTLQLSKGMQHLDGTQATQYARTRYTLGDGSDTARTTRQQYLIKQLMSEALSKNLFTDTAQLYQLAKSALESLNISEGMADTAALVGLAMSLKNFNMSHLYTQTVPVVAAPSDPNRSVWADNADEVWAKMREGKSLFESTETNATSTDSTTTDGTTESQNTDENSGEQAQSTETPDATTGLITRADGTLIDPNTGGTVDPEDGSIHDATTGQYIGIADRYLNATVCAVPAKN”, the protein production result is recorded as “failed”.

Take “MFSLKNYSPSPLLSAKAKEYLVFTLVTLTIVVAGTLLFLFDPASSKLFPPSPFRSLTGLYCPGCGTLRALHQLLHGNLVGAFGLNPLMMISLPFMIYSYVAYGLKTINGRTLLVWFVPPKVIWFILQAILAYWVARNIPFAPFSWLAP”: the protein production result is given as “failed”.

On to “MFSNQYIQQRIHKANSLREEGKNPYQNGLKRSLTNAAFLEKYAYVKGLEEPKDKEKCESIVGRVKLLRLMGKACFIKVEDESTILQVYVSQNELNDEFKSLKKHLEVGDIVLVKGFPFATKTGELSIHALEFHILSKTIVPLPEKFHGLSDIELRYRQRYLDLIVNPSVKDVFKKRSLIVSSVRKFFEMEGFLEVETPMMHPIPGGANARPFITYHNALEVERYLRIAPELYLKRLIVGGFEAVFEINRNFRNEGMDHSHNPEFTMIEFYWAYHTYEDLIELSKRLFDYLLKTLNLDSKIIYNDMEVDFNQTSVISYLDALETIGGISKDILEKEDRLLAYLLEQGIKVEPNLTYGKLLAEAFDHFVEHQLINPTFVTQYPIEISPLARRNDSNPNIADRFELFIAGKEIANGFSELNDPLDQLERFKNQVAEKEKGDEEAQYMDEDYVWALAHGMPPTAGQGIGIDRLVMLLTGAKSIKDVILFPAMRPVKNDFNVESEE”, for which the protein production result is given as “failed”.

On to “MFSPQAYLIFNMRKPPFDNIKVRQAVMHAFNRKLVVDNIFFGLGKISTSPFVPTEMFFDKDIPAIPFDMKKARALIKESGINPGDYTIRQLSFPYGATWDRLGEYTKQALEQLGFKVNVESTDAGGWASRTGNWDFDLTTTYSYQYGDPALGVQRLYVTSNIVKGSPFANMQGYSNPESDKLWEQAAAEVDPAKRQELYNKIQALLVAEVANGFLVDME”, for which the protein production entry was “failed”.

For “MFSRKDIIVLGMMIFALFLGAGNIIFPPMEGFSSGQHWTSASLGFVLTGVLMPFITLVVVAILGRGEELTKDLPKWAGTGFLVILYLTIGSTFAMPRITNVAYEMAWLPLGLTENNANVRFVFSLIFNLIAMGFMISPNTIISSVGKFMTPALLVLLIAVAITVFISPLSEIQAPSNAYENSHSLLIGLTSGYQTMDVLAAIAFGGIVARALSAKNVTKTKDIVKYTISAGFVSVILLAGLYFSLFYLGATSAAVAEGATNGGQIFSRYVNVLFGSAGTWIMAGIIVLASLTTLVGVTSASADYFSKFSVRFSYPFWAALFTAMTITVSQYGLTDLLRITIPALLLIYPVAIVLVLLQFLRKKLPSIKFTYNSTLLVTVCFSLCDSLNNVKMLPESINSLLKHFPLSSEGMAWLVPTLVMLVASIFIGKALHKTHS”, the protein production entry was “failed”.
